For data set [1], the system named is collagen I and III fibers. Briefly: Picro Sirius Red (PSR) staining of lung sections, ImageJ quantification. Type of data set: in vivo, mouse. As to conditions: lungs of BLM cohort given the tracer. On the procedure:
Following PET/CT imaging, lungs from all cohorts (bleomycin-induced lung injury model administered with linear or cyclic [^68Ga]Ga-RP832c, healthy mice administered with linear or cyclic [^68Ga]Ga-RP832c, and mice not administered bleomycin) were collected and fixed in 10% formalin. After 48 h of fixation, the lungs were transferred to 70% ethanol and after an additional 24 h, samples were sent for preparation of tissue sections. Tissue sections were prepared by the UAB Pathology Core Research Laboratory, Birmingham, AL, USA. Subsequently, tissue sections were stained with CD206 (Mouse MMR/CD206 Antibody (20 µg/mL, Cat: AF2535, R&D, Minneapolis, MN, USA). The secondary antibody was the Rabbit anti-goat IgG (H+L) HRP (1:2000 dilution, Cat no: 81-1620, Invitrogen, Waltham MA, USA). Picro Sirius Red Staining was conducted using a commercial kit (Picro Sirius Red Stain Kit, ab150681, Abcam, Waltham, MA, USA). Collagen was stained in red while muscle fibers and cytoplasm were stained in yellow.
Picro Sirius Red staining was carried out to detect collagens due to pulmonary fibrosis. The kit is intended for use in the histological visualization of collagen I and III fibers. Picro Sirius Red solution was applied to completely cover the tissue section and then the sample was incubated for 60 min. Slides were rinsed twice in acetic acid solution (0.5%). Slides were rinsed in absolute alcohol and dehydrated in 2 changes in absolute alcohol. The mounting media used was Permount™ Mounting Medium, Pittsburgh, PA, USA. CD206-, PSR-, and H&E-stained samples were imaged using EVOS™ M7000 Imaging System (Invitrogen, Waltham, MA, USA). For IHC semi-quantification, all slides were scored under a light microscope according to the degree of staining (0 points negative for staining, 1 point light yellow, 2 points light brown, and 3 points dark brown) and the range of positivity (1 points 0 to 25%, 2 points 26 to 50%, 3 points 51 to 75%, and 4 points 76 to 100%), and the final scores were summed for analysis.

Data set [2] has as its target T1, murine CD206 (Recombinant mouse MMR/CD206 protein) (Mus musculus, UniProt Q61830).
T1 construct: purchased R&D Systems
T1 sequence (Q61830 19-1388 limits assumed): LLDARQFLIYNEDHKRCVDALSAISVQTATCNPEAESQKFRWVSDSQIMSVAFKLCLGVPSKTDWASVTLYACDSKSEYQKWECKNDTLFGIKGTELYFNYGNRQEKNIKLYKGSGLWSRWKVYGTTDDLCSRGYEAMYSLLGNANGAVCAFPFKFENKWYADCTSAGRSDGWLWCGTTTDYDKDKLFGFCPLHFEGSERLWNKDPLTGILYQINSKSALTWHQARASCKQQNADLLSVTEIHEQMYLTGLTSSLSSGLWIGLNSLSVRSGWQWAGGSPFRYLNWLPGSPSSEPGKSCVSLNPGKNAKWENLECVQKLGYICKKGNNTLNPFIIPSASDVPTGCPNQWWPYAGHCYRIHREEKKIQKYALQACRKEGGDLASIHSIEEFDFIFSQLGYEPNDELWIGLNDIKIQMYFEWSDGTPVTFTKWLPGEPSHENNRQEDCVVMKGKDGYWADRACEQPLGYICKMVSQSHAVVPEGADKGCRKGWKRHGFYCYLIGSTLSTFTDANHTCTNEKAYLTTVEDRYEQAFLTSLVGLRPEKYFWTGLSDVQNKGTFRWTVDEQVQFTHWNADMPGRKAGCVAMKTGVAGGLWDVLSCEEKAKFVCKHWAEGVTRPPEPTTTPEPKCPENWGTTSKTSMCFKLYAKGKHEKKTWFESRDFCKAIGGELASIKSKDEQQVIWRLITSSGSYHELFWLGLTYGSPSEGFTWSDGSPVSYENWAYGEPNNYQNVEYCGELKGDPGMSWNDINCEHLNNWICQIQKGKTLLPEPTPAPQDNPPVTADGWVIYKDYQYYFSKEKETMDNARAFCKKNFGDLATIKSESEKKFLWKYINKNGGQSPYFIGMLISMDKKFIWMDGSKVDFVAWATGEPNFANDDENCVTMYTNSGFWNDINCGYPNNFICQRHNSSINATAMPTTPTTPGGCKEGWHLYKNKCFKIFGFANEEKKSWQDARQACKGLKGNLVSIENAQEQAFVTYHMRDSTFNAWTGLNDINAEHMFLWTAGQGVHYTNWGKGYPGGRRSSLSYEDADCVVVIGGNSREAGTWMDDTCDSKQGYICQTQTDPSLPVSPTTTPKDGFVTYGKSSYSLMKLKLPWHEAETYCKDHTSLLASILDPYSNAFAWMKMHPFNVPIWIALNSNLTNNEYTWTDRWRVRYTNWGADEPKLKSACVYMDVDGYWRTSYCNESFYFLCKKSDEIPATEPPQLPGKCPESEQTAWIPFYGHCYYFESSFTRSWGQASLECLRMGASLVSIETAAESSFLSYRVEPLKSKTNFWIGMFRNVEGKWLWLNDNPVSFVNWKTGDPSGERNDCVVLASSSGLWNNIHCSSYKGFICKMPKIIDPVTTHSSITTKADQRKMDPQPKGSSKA
Briefly: CD206 plate binding assay. The conditions noted are these: 1 µg CD206 per well, 2 µg (0.1 µCi) tracer, n = 10. On the procedure:
The affinity of linear and cyclic RP832c to murine CD206 (Recombinant mouse MMR/CD206 protein, R&D Systems, Minneapolis, MN, USA) protein was tested via plate binding study using blocking and non-blocking groups. 48 h before the experiment 1 µg of CD206 (in 0.1 mL 15 mM Na2CO3, 35 mM NaHCO3) was added to each well of 96-well flat bottom plate. The plate was kept at 4 °C for 48 h. On the day of the study, 5 µg (0.1 mL aqueous solution) of linear or cyclic RP832c was added to each well (n = 10) of each blocking group and was incubated at 37 °C for an hour. Then, 2 µg (0.1 µCi) of [^68Ga]RP832c was added to each well (n = 10 for each group) of both blocking and non-blocking groups. Both groups were incubated at 37 °C for an hour. Wells were rinsed with PBS (pH = 7) three times. Three wells were used as standards. Each well of the blocking and non-blocking groups and the standards were measured via the HIDEX gamma counter (Lablogic, Clair-Mel City, FL, USA). Data were decay corrected, and binding (%) values were calculated according to standards.

As for RWKFGGFKWR [cyclic [^68Ga]Ga-RP832c], the “area % values for PSR staining (ImageJ)” value in data set [1] (1 week post bleomycin instillation) was 0.86 ± 0.44%; in data set [1] (2 weeks post bleomycin instillation), 1.28 ± 1.06%; in data set [1] (3 weeks post bleomycin instillation) it was 1.36 ± 0.75%. The “CD206 plate binding %” value is listed as 10.36 ± 0.44% in data set [2] (blocking: 5 µg linear or cyclic RP832c, 37 °C 1 h before tracer) and 37.60 ± 1.40% in data set [2] (non-blocking, 37 °C 1 h, gamma counter).
